Measurements from CN113817050A.

Target: 抗原(Biacore 8K表面等离子共振实验，未指明)
Assay: SPR, Biacore 8K; antigen and format not given

B1: 抗SARS-CoV-2的单克隆抗体1H8 (antibody, V domains shown)
VH: EVQLVESGGGLVQPGGSLRLSCAASEITVSSNYMNWVRQAPGKGLEWVSVIYSGGTTYYADSVKGRFTISRDNSENTLYLQMNSLRAEDTAVYYCARDLMEVGGMDVWGQGTTVTVSS
VL: DIVMTQSPSSLSASVGDRVTITCRASQGVSNYLAWYQQKPGKVPKLLIYAASTLQSGVPSRFSGSRSGTDFTLTISSLQPEDVATYYCQNYNSAPFAFGPGTKVEIK
Kd: 18.7 nM | koff: 0.00138 s⁻¹ | kon: 73600 M⁻¹ s⁻¹
